Data taken from the nanobody polyreactivity screen of Harvey et al. (2022).

Assay: yeast display, Sf9 membrane polyspecificity reagent, FACS + sequencing; frameworks hold sequencing errors
Outline: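 A synthetic nanobody library was expressed on Saccharomyces cerevisiae BJ5465 by galactose induction for 36–48 hours. The library was stained for 1 hour at 4 °C with 10% biotinylated, detergent-solubilized Sf9 membrane reagent and enriched with streptavidin microbeads before FACS. Low and high (top ~1%) gates were set on anti-HA fluorescence for expression and streptavidin fluorescence for reagent binding, and each polyreactivity label reflects the gate of origin.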

| Sequence | polyreactivity (PSR sort gate) |
| --- | --- |
| QVQLVESGGGLVQAGCSLRLSCAASGRTFYPYAMGWYRQAPRKERELVAAINWSGTSTYYADSVKGRFTISRDNAKNTVYLQMNSLKTEDTAVYYCAAKQYPVLHYSLTEADMDYWGQGTQVTVSS | low polyreactivity |
| QVQVVESGGGLLQAGVSLRLSCAASGRTFSKYDMGLYRQPPGKERELVAAITRTGSSTYYADSVKGRFTISRDNAKNTVYLQMNSLKPEDTAVYYCAADRYLRYSGSSSDYGYWVQGTQVTVSS | low polyreactivity |
| QVQLVESGGGLVQAGGSLRLSCAASGSTFRYNAMGWYRQAPGKERELVAGISYRGGTTYYADSVKGRFTISRDNAKNTVYLQMNSLKPEDTAVYYCAAAASSPGGWFYYWGQGTQVTVSS | high polyreactivity |
| QVQLVESGGGLVQAGGSLRLSCAASGRTFYGYAMGWYRQAPGKERELVASISRDGYTNYADSVKGRFTISRDNANNTVYLQMTSLKPEDTAVYYCAADFWYYRYPIYYYSYDYWGQGTQVTVSS | low polyreactivity |
| QVQLVESGGGLVQAGGSLRLSCAASGRIFRSYAMGWYRQAPGKERELVAAITWSGGSTYYADSVKGRFTISRDNAKNTVYLQMHSLKPEDTAVYYCARVVTKKYSHTGYEYWGQGTQVTVSS | high polyreactivity |
| QVQLVESGGGIVQAGGSLRLSCAASGNTFYTYAMGWYRQAPGKERELVAAITSGGRTYADSVKGRFTISRDNATNTVYLQMNSLKPEDTAVYYCAADFPGFYYVYPGDYWGQGTQVTVSS | low polyreactivity |
| QVQLVESGGGLVQAGGSLRLSCAASGSTVNFYAMGWYRQAPGKERELVAAISWRGNTYYADSVKGRFTISRDNAKNTVYLQITSLKPEDTAVSYCDAYEWLAYTSAWYGYWGQGTQVTVSS | high polyreactivity |
| QVQLVESGGGLVQAGGSLRLSCAASGRTIYFYTMGWYRQAPGKERELVATAITSGGCTNYAVSVKGRFTISRDNAKNTVHLLMNSRKPEDTAVYYCAAVPTEFGNRLEYDYWGQGTQVTVSS | low polyreactivity |
| QVQLVESGGGLVQAGGSLRLSCAASGFIFRYYAMGWYRQAPGKERELVAAISYSGGSTYYADSVKGRFTISRDTAKNTVYLQMNSLKPEDTAVYYCAAVLRTRDHPQPNYVYWGQGTQVTVSS | high polyreactivity |
| QVQLVESGGGLFQAGGSLRLSCAASGRIFSYNNMGWYRQAPGKERELVAAISTSGGSTYYADSVKGRFTLSRDNAKNTVYLQMNSLKPEDTAVYYCNTVWTFRTSTNYDYWGQVTQVTVSS | low polyreactivity |
| QVQLVESGGGLVQAGCILRLSCAASGRIFNYYTMGWYRQAPGKEMELVAAITRTGGNTYYADSVKGRFTISRDNAKNTVYLKMNSLEPEDTAVYDCNVVWLNQREYYYWGQGTHVTVSS | high polyreactivity |
| QVQLVESGGGLVQAGGSLRLSCAASGITFSGNAMGWYRQAPGKERELVAAISRNGGRTYYADSVKGRFTISRDNAKNTVYLQMNSLKPEDTAVYYCAKDAYGYSRVSAWYYTYDYWGQGTQVTVSS | high polyreactivity |
| QVQLVESGGGLVQAGGSLRLSCAASGMTFHRYAMGWYRQTPGKERELVAAINYSGGRTYYADSVKGRFTISRDNAKNTVYLQMNSLKPEDTAVYYCAAPRASGYYWGQGTQVTVSS | high polyreactivity |
| QVQLVESGGGLVQAGGSLRLSCAASGFIFNYYAMGWYRQAPGKERELVAISRGGSTNYADSVKGRFTISRDNAKNTVYLQMNSLKPEDTAVYYCAATKRYASGMYYWGQGTQVTVSS | high polyreactivity |
| QVQLVESGGCLVQAGGILRLSCAASGSIFVGYDMGWYRQAPGKERELVAAITGTVSTYYADSVKGRFTISRDNAKNTVYLQMNSLKPEDTAVYYCAAEFVYAYGDGGVYWSWMEYWGQGTQVTVSS | low polyreactivity |
| QVQLVESGGGLVQAGGSLRLSCAASGRIFQYYVMGRYRQAPGKEREWVAAMTSGGGTKYADSVKGRFTISRDNEKNTVYLQMNSLKPEDTAVYYCAAAWFDQYSRYDYWGQGSQVTVSS | low polyreactivity |
| QVHLVESGGGLVQAGGSLRLSCAASGRIFYYNAMGWYRQAPGKERELVAAISSAGSTYYADSVKGRFTLSRDNAKNTVYLQMNSLKPEDTAVYYCNAGKHERMDWGQGTQVTVSS | high polyreactivity |
| QVQLVESGGGLVQAGGRLRLSCAASGRTFGSYAMGWYRQAPGKERELVAAISWSDGSTYYADSVKGRFTISRDNAKNTVYLQMNSLKPEDTAVYYCHWAKWYRYGGYRSRFDYWGQGTQVTVSS | low polyreactivity |
| QDQLVYSGGGLVQAGGSLSISCASSVSTFGGYAMGWYRQAPGKERELVSAITWSAGSTYADSVKGRFTISRDNAKNTVYLQMTSLKPEDTAVYYCAAYPYVGYVSLSAYDYWGQGTQVTVSS | low polyreactivity |
| QVQLVESGGGLVQAGGSLRLSCAASGRTFESYAMGWYRQAPGKERELVAAITWSGGDTYYADSVKGRFTISRDNAKNSVYLQMNSLKPEDTAVYYCAKEQGLYSVSPYDYWGQGSQVTVSS | low polyreactivity |
| QVQLVESGGGLVQAGGSLRLSCAASGRIFYTYAMGWYRRAPGKERELVAAIRISGVRTYYADSVKGRFTISRDNAKNTVYLQMNSLKPEDTAVYYCAADSYGDRMDYWGQGTQVTVSS | high polyreactivity |
| QVQLVESGGGLVQAGGSLRLSFSASGRTFPFYAMGWYRQEPGKERDLVAAITVSGGSTYYADSVKGRFTISRDNAKNTVYLQMNSLKPVDTAVYYCNAKRSDQSSKTFNYWGQGTQVTVSS | low polyreactivity |

| Sequence | polyreactivity (PSR sort gate) |
| --- | --- |
| QVQLVESGGGLVQAAGSLRLSCAASGFIFRYNVMGWYRQAPGKERELVAAISTSGGRTYFADSEKGRFTISRDNAKNTGYLQMNSLKPEDTEVYYCNAVKSEGQKVRDGYYWGQGTQVTVSS | high polyreactivity |
| QVQLVESGGGFVQAGGSLRLSCAASGSTLPYYAMGWYRQAHGKERELVADITARGGTYYADSVKGRFTISRDNAKNTVYLQMNSLKPEDTAVYYCAAAYSLWQFYWDQGYDYWGQGTQVTVSS | high polyreactivity |
| QVQLVESGGGLVQAGGSLRLICAASGSIFQPYAMGWYRQAPGKERELVAAINGRGGSTHYADSVKGRFTISRDNAKNTVYLQMNSLKPEDTAVYYCAARYYRDYRWYTYAYDYWGQGTQVTVSS | high polyreactivity |
| QVQLVESGGGLVQAGGSLRLSCAASGIIFIFYDMGWYRQAPGKERELVATITSGTNTYADSVKGRFTISRDNAKNTVFLQMNSLKPEDTGVYYCAAGFSPASQLDYWGQGSQVTVSS | low polyreactivity |
| QVQLVESGGGLVQAGGSLRLSCAASGLTFRSYSMGWYRQAPGKEREFVAAITGSGDTTYYADSVKGRFTISRDNAKNTVYLQMNSLKPEDTAVYYCNADRDYLWITLYEYWGQGTQVTVSS | high polyreactivity |
| QVQLVESGGGLVQAGGSLRLSCAASGGIISINAMGWYRQAPGKERELVAAISWGDGITYYADSVKGRFTTSRDNAKNTVYLLMTSLKPEDTAVYYCAKDIGTRLGPAGYDYWGQGTQVTVSS | low polyreactivity |
| QVQLVESVGGLVQAGGSLRLSCAASGRTFFYNAMGWYRQAPGKERELVAAIDWSGDSTYYADSVKGRFTISRDNAKNTVYLQMNSLKPEDTAVYYCAARRKNRRDYDYYYWGQGTQVTVSS | high polyreactivity |
| QVQLEESGAALVQAGGSLRLSCAAMGWYRQSPGKERELLATITWSGGSTYYADSVKGRFTISRDNAKNTVYLQMNSLKPEDTAVYYCTARATLLSPANTIRGYDYWGQGTQVTVSS | low polyreactivity |
| QVQLVESVGGLVQAGGSLRLSCAASGGIFDTYVMGWYRQAPGKERELVAAISSSGSTTYADSVKGRFTISRDNAKNTVYLQMNSLKPEDTAVYYCNADYSTIWRYDYWGQGTQVTVSS | low polyreactivity |
| QVQLVESGGGLVQAGGSLRLICAASGITFNKYSMGWYRQAPGKERELVAAISSRGCSTYYADSVKGRFTISRDNAKNTVYLQMNSLKPEYTAVYYCAAERGTTYAYDYWGQGTQVTVSS | high polyreactivity |
| QVQLVESAGGLVQAGGSLRLSCDASVSTFGYYAMGWYRQAPGKERELVAVIRRGGSTNYADSVKGRFTISRDNAKNTVYLQMNSLKPEDTAVYYCAKSQRGTVYSYYYWGQGNQVTVSS | high polyreactivity |
| QVQLVESGGGLVQEGGSLRLSCSASGRIFGSYAMGWNRPATGKERELVAAINSSGGRTYYADSVKGRFTISRDNAKNTVYLQMNSLKPDVTAVYYCNARRVYSQRYDYWGQGTQVTVSS | high polyreactivity |
| QVQLVESGGGLVQAGGSLRLTCAASGFILKYYAMGWYRHAPGKERHLVAAITVSGGSTYYADSVKGRFTISRDNAKNTVYLQMNSLKPEDTAVYYCNADYPRGGAGLLDYWGQCTQVTVSS | low polyreactivity |
| QVQLVESGGGLVQAGGSLRLSCAAYGSIFRVYAMGWYREAAGKERELVATISWSAGSTYYADSVKGRFTISRDNAKNTVYLQMNSLKPEDTAVYYCAADPVGYYDPSDYWGQGTQVTVSS | low polyreactivity |
| QVQLVESGGGLVQARCSLRLSCDASGSIFPHYAMGWYRQAPGKEREFVATISGSTGRTYYADSVKGRFTISRDYAKNTVYLQMNSLKTEDTAVYYCATSVGYYLPPIKYDYWGQGTQVTVSS | low polyreactivity |
| QVQLVESGGGLVQAGGSLRLSCAASGSIFRVYGMGWHRQAPGKERELVAAITWSGGSTYYADSVKGRFTISRDNAKNTVYLQMNSLKPEDTAVSYCAARARPRYYRPPYDYWGQGTQVTVSS | high polyreactivity |
| QVQLVESGGGLVQAGGSLRLSCAASGIIFSSYAMGWYRQAPGKERELVADISYTGGSTYYADSVKGRFTISRDNAKNTVYLQMNSLKPEDTAVYYCAAGVYLHYSVDYWGQGTQVTVSS | low polyreactivity |
| QVQLVESGGGLVLAGGSLRLSCAASGSTFVYYAMGWYRQAPGKERELVAAISRSGGSTYYADSVKGRFTISRDNAKNTVYLQMNSLKPEDTAVYYCAAKVRFTRRYDYWGQGTQVTVSS | high polyreactivity |
| QVQLVESGGGLVQAGGSLRLSCAASGIIFGYYAMGWYRQAPGKERELVAAISRRGGSTYYADSVKGRFTISRDNAKNTVYLQMNSLKPEDTAVYYCAAVELRLSTPDMESWGQGTQVTVSS | high polyreactivity |
| QVQLVESGGGLVQAGGSLRLSCAASGTIFGEYAMGWYRQAPAKERELVADITTGGNTNYADSVKGRFTISRDNAKNTVYLQMNSLTPEATAVYYCAADFFSRDWGQGTQVTVSS | low polyreactivity |
| QVQLVESGGGLVQAGGSLRLSCAASGFISDDYAMGWYRQAPGKERELVAAISDSGVDTYYADSVKGRFTISRDNAKNTVYLQMNSLKPEDTAVYYCNKRYVIRRRGYDYWGQGTQVTVSS | low polyreactivity |
